# Patent publication US10202593B2, “Evolved sortases and uses thereof” (President and Fellows of Harvard College, priority 2013, dated 2019)
# “And” between values parts separate entries of the source, which are not always exact repeats. Identical values can stand only once. Like-named read-outs stand apart in the source and are kept apart here.
# Legend:
# [1] = system: LPESG (Abz-LPESGK(Dnp)-CONH2); assay: In vitro sortase kinetics HPLC assay, LPESG substrate; type: biochemical
# How it was run: (§1)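 Abz-LXEXGK(Dnp) peptides in 300 mM Tris pH 7.5, 150 mM NaCl, 5 mM CaCl2, 5% DMSO, GGG; 22.5° C., acid-quenched, converted fraction by reverse-phase HPLC peak areas. kcat and Km from eight substrate concentrations fit to Michaelis-Menten; KH at 1 mM substrate over eight GGG levels.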
# [2] = Differential scanning fluorimetry for thermal melting curves; type: physicochemical
# Protocol: FIGS. 25A-C show thermal melting curves for eSrtA variants. Each protein was freshly expressed and purified, then diluted to 40 μM in 100 mM Tris pH 7.5, 500 mM NaCl. Differential scanning fluorimetry was performed using the Life Technologies Protein Thermal Shift™ Dye kit according to manufacturers' instructions. Thermal scanning was performed on Biorad CFX96-Real Time PCR (25° C. to 99° C., 0.2° C./2s increments). To calculate Tm, fluorescence intensity was fit to the Boltzmann equation using Microsoft Excel using the Solver add-in. Melting curves were plotted with best-fit fluorescence intensities that were normalized to maximum fluorescence intensity. Tm values are shown with their standard deviations as determined from three technical replicates.
# To determine thermal stability of eSrtA, eSrtA(2A-9), eSrtA(4S-9), and variants thereof, each protein was freshly expressed and purified, then diluted to 40 μM in 100 mM Tris pH 7.5, 500 mM NaCl. Differential scanning fluorimetry was performed using the Life Technologies Protein Thermal Shift™ Dye kit according to manufacturers' instructions. […] To calculate Tm, fluorescence intensity was fit to the Boltzmann equation using Microsoft Excel using the Solver add-in. Melting curves were plotted with best-fit fluorescence intensities that were normalized to maximum fluorescence intensity.
# [3] = system: LPETG (Abz-LPETGK(Dnp)-CONH2); assay: In vitro sortase kinetics HPLC assay, LPETG substrate; type: biochemical
# How it was run: as §1
# [4] = system: LAETG (Abz-LAETGK(Dnp)-CONH2); assay: In vitro sortase kinetics HPLC assay, LAETG substrate; type: biochemical; settings: for Km: read-out: Km
# How it was run: as §1
# [5] = GGG varied, substrate 4S (LPESG)
# [6] = GGG varied, substrate wt (LPETG)
molecule,measurement,setting,value
"eSrtA(4S-9): P94R, N98D, S102C, A104V, A118T, F122A, K134R, F144L, D160N, D165A, I182V, E189F, K190E, K196T (protein) QAKPQIPKDKSKVAGYIEIPDADIKEPVYPGPATREQLDRGVCFVEENESLDDQNISITGHTAIDRPNYQFTNLRAAKKGSMVYLKVGNETRKYKMTSIRNVKPTAVEVLDEQKGKDKQLTLVTCDDYNFETGVWETRKIFVATEVK",KH,[1]; 1 mM LPESG,174 ± 32 µM
same,KN,"[1]; 1 mM LPESG, eight GGG concentrations",174 ± 32 µM
same,Km,"[1]; 1 mM LPESG, read-out: Km,GGG",69000 ± 12000 µM
same,Avg kcat (Hz),"[1]; Example 5 variants, substrate 4S (LPESG)",2.146 Hz
same,Km,"[1]; Example 5 variants, substrate 4S (LPESG), read-out: Avg KM",123 µM
same,Avg kHydro (Hz),[1]; [5],0.008016 Hz
same,Avg kcat (Hz),[1]; [5],3.178 Hz
same,Km,"[1]; KM for GGG, substrate 4S (LPESG), read-out: Avg KM",69500 µM
same,"KH (KH,LPESG)",[1]; LPESG substrate,174 ± 32 µM
same,Kcat (Hz),"[1]; Sub LPESG, 100 mM GGG",2.05 ± 0.15 Hz
same,Km,"[1]; Sub LPESG, 100 mM GGG, read-out: Km",113 ± 12 µM
same,Rel. Activity,"[1]; Sub LPESG, kcat/Km of the enzyme's preferred substrate relative to kcat/Km on this substrate",1
same,Kcat (Hz),"[1]; Table 2, Sub LPESG",2.05 ± 0.15 Hz
same,Km,"[1]; Table 2, Sub LPESG, read-out: Km",113 ± 12 µM
same,change in specificity for LPESG versus LPETG relative to eSrtA,"[1]; ratio of (kcat/KM)target to (kcat/KM)LPETG, relative to eSrtA",120 fold and 125 fold
same,preference for LPESG over LPETG,[1]; ratio of kcat/KM,25 fold
same,Specificity,"[1]; ratio of kcat/KM, 4S (LPESG) over wt (LPETG)",24.953
same,Avg KH,[1]; substrate 4S (LPESG),173.5925 µM
same,ΔTm compared to eSrtA,[2],~4.4 °C
same,KH,[3]; 1 mM LPETG,295 ± 19 µM
same,KN,"[3]; 1 mM LPETG, eight GGG concentrations",295 ± 19 µM
same,Km,"[3]; 1 mM LPETG, read-out: Km,GGG",98000 ± 13000 µM
same,Avg kcat (Hz),"[3]; Example 5 variants, substrate wt (LPETG)",0.0468 Hz
same,Km,"[3]; Example 5 variants, substrate wt (LPETG), read-out: Avg KM",66.1 µM
same,Avg kHydro (Hz),[3]; [6],0.000173 Hz
same,Avg kcat (Hz),[3]; [6],0.05704 Hz
same,Km,"[3]; KM for GGG, substrate wt (LPETG), read-out: Avg KM",97600 µM
same,"KH,LPETG",[3]; LPETG substrate,295 ± 18 µM
same,Kcat (Hz),"[3]; Sub LPETG, 100 mM GGG",0.047 ± 0.006 Hz
same,Km,"[3]; Sub LPETG, 100 mM GGG, read-out: Km",64.7 ± 4.2 µM
same,Rel. Activity,"[3]; Sub LPETG, kcat/Km of the enzyme's preferred substrate relative to kcat/Km on this substrate",25
same,Kcat (Hz),"[3]; Table 2, Sub LPETG",0.047 ± 0.006 Hz
same,Km,"[3]; Table 2, Sub LPETG, read-out: Km",64.7 ± 4.2 µM
same,activity on LPETG,[3]; round 9 clones,minimally active on LPETG
same,Avg KH,[3]; substrate wt (LPETG),294.8601 µM
same,activity on LAETG,[4],negligible activity
same,Kcat (Hz),"[4]; Sub LAETG, 100 mM GGG",0.0078 ± 0.0006 Hz
same,Km,"[4]; Sub LAETG, 100 mM GGG",387 ± 49 µM
same,Rel. Activity,"[4]; Sub LAETG, kcat/Km of the enzyme's preferred substrate relative to kcat/Km on this substrate",898
same,Kcat (Hz),"[4]; Table 2, Sub LAETG",0.0078 ± 0.0006 Hz
same,Km,"[4]; Table 2, Sub LAETG",387 ± 49 µM
